According to paper PMC10867769, “Grafting the ALFA tag for structural studies of aquaporin Z” (Journal of Structural Biology: X, 2024):

Tests used:
[1] = target: octameric (AqpZ-ALFA)4(nB)4 complex (E. coli) (UniProt P60844); assay: cryo-EM structure; AqpZ-ALFA incubated with five-fold molar excess of nB in C8E4, complex purified (StrepTrap, Superdex 200), 10 mg/mL, 5-fold molar excess of 18:1 cardiolipin (TOCDL); prepared at room temperature, grid at 5 °C; D4 symmetry, 1.9 Å
[2] = target: the molecule itself; assay: as above

octameric (AqpZ-ALFA)4(nB)4 complex, sequence (P60844 whole entry, looked up, one chain of several): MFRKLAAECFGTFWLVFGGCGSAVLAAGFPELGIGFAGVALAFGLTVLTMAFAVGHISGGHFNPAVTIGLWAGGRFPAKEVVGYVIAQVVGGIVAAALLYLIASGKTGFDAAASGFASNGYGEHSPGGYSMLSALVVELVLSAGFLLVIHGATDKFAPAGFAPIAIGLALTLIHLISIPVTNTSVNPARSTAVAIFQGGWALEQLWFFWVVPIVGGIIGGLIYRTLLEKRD

Row | stoichiometry N [1] | Molecule | stoichiometry N [2]
1 | 2 | octameric (AqpZ-ALFA)4(nB)4 complex (from UniProt P60844 1-227) | 
2 |  | AqpZ-ALFA (E. coli aquaporin Z with the ALFA tag grafted onto its C-terminus, flexible linker and Strep-tag II) (other, Aquaporin Z (AqpZ), E. coli, UniProt P60844; from the start up to the printed C-terminal residues IYRTLL; the last residues of the natural protein are replaced by the graft; followed by aswshpqfek (Strep-tag II, written as a tag); Tetramer; also called AqpZ-ALFA-St; source: E. coli BL21-A1, purified (octyl glucoside extraction of membranes, StrepTrap, Superdex 200 in C8E4); not shown: Strep-tag …) MFRKLAAECFGTFWLVFGGCGSAVLAAGFPELGIGFAGVALAFGLTVLTMAFAVGHISGGHFNPAVTIGLWAGGRFPAKEVVGYVIAQVVGGIVAAALLYLIASGKTGFDAAASGFASNGYGEHSPGGYSMLSALVVELVLSAGFLLVIHGATDKFAPAGFAPIAIGLALTLIHLISIPVTNTSVNPARSTAVAIFQGGWALEQLWFFWVVPIVGGIIGGLIYRTLLRASRLEEELRRRLTEPGGGPG | 4
